This passage reports Kd results from paper PMC2889927.

What is called Kd is the free concentration of one partner at which half of the binding sites on the other are occupied at equilibrium, for simple one-to-one binding.

The assay has as its target lactosylceramide-loaded recombinant human CD1d complex (human) (UniProt P15813). Put plainly: SPR.

recombinant soluble iNKT TCR 4C1369 (Vα24/Vβ11 heterodimer), sequence (A0A0B4J240 whole entry, looked up, tested part not stated, one chain of several): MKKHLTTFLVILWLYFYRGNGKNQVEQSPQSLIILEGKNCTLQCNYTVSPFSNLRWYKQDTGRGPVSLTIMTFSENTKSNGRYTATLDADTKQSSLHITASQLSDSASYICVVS
lactosylceramide-loaded recombinant human CD1d complex (human), sequence (P15813 20-335, one chain of several): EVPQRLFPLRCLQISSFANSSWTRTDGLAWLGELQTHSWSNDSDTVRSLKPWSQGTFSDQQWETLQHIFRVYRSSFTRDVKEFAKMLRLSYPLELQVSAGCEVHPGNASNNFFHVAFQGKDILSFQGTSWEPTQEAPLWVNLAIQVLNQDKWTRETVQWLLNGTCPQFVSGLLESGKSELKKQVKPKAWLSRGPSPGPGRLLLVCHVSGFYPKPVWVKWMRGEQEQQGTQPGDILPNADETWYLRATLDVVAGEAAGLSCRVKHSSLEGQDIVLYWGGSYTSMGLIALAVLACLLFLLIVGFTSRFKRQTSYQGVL

Turning to “recombinant soluble iNKT TCR 4C1369 (Vα24/Vβ11 heterodimer) (from UniProt A0A0B4J240)”, the Kd is 2030 nM.
